Laboratory results from the Human Domainome abundance scans (Beltran et al. 2025).
± gives the uncertainty stated by the source.

B1: Peripheral plasma membrane protein CASK, residues 488 to 569; numbered along this chain, O14936 (parent)
chain: VRLVQFQKNTDEPMGITLKMNELNHCIVARIMHGGMIHRQGTLHVGDEIREINGISVANQTVEQLQKMLREMRGSITFKIVP

Variants of: B1
Assay: abundance fitness (aPCA) (normalised: wild type 0, dead -1); higher = more abundant; growth selection in yeast, the domain comes from the species named
Conditions: Homo sapiens

Q: Which abundance fitness does the source give for VRLVQFQKNTDEPMGITLKMNELNHCIVARIMHGGMIHRQGTLHVGDEIREINGISVANQTVEQLQKMLREWRGSITFKIVP [M72W] here?
A: -0.047 ± 0.024

Q: For VRLVQFQKNTDEPMGITLKMNELNHCIVARIMHGGMIHRQGTLHVGDEIREINGISVANQTVEQLQKMLREYRGSITFKIVP [M72Y], which abundance fitness is on record?
A: -0.055 ± 0.041

Q: With VRLVQFQKNTDEPMGITLKMNELNHCIVARIMHGGMIHRQGTLHVGDEIREINGISVANQTVEQLQKMLREMAGSITFKIVP [R73A] as the variant, how does the abundance fitness read?
A: -0.082 ± 0.025

Q: For VRLVQFQKNTDEPMGITLKMNELNHCIVARIMHGGMIHRQGTLHVGDEIREINGISVANQTVEQLQKMLREMCGSITFKIVP [R73C], which abundance fitness is on record?
A: -0.011 ± 0.038

Q: With VRLVQFQKNTDEPMGITLKMNELNHCIVARIMHGGMIHRQGTLHVGDEIREINGISVANQTVEQLQKMLREMDGSITFKIVP [R73D] as the variant, how does the abundance fitness read?
A: -0.002 ± 0.041

Q: Which abundance fitness does the source give for VRLVQFQKNTDEPMGITLKMNELNHCIVARIMHGGMIHRQGTLHVGDEIREINGISVANQTVEQLQKMLREMEGSITFKIVP [R73E] here?
A: -0.02 ± 0.027

Q: With VRLVQFQKNTDEPMGITLKMNELNHCIVARIMHGGMIHRQGTLHVGDEIREINGISVANQTVEQLQKMLREMFGSITFKIVP [R73F] as the variant, how does the abundance fitness read?
A: -0.124 ± 0.059

Q: Which abundance fitness does the source give for VRLVQFQKNTDEPMGITLKMNELNHCIVARIMHGGMIHRQGTLHVGDEIREINGISVANQTVEQLQKMLREMGGSITFKIVP [R73G] here?
A: -0.022 ± 0.021

Q: Which abundance fitness does the source give for VRLVQFQKNTDEPMGITLKMNELNHCIVARIMHGGMIHRQGTLHVGDEIREINGISVANQTVEQLQKMLREMHGSITFKIVP [R73H] here?
A: -0.044 ± 0.055

Q: Which abundance fitness does the source give for VRLVQFQKNTDEPMGITLKMNELNHCIVARIMHGGMIHRQGTLHVGDEIREINGISVANQTVEQLQKMLREMIGSITFKIVP [R73I] here?
A: -0.04 ± 0.046

Q: With VRLVQFQKNTDEPMGITLKMNELNHCIVARIMHGGMIHRQGTLHVGDEIREINGISVANQTVEQLQKMLREMKGSITFKIVP [R73K] as the variant, how does the abundance fitness read?
A: 0.007 ± 0.033

Q: With VRLVQFQKNTDEPMGITLKMNELNHCIVARIMHGGMIHRQGTLHVGDEIREINGISVANQTVEQLQKMLREMLGSITFKIVP [R73L] as the variant, how does the abundance fitness read?
A: -0.113 ± 0.026

Q: For VRLVQFQKNTDEPMGITLKMNELNHCIVARIMHGGMIHRQGTLHVGDEIREINGISVANQTVEQLQKMLREMMGSITFKIVP [R73M], which abundance fitness is on record?
A: -0.077 ± 0.032

Q: For VRLVQFQKNTDEPMGITLKMNELNHCIVARIMHGGMIHRQGTLHVGDEIREINGISVANQTVEQLQKMLREMNGSITFKIVP [R73N], which abundance fitness is on record?
A: 0.038 ± 0.058

Q: For VRLVQFQKNTDEPMGITLKMNELNHCIVARIMHGGMIHRQGTLHVGDEIREINGISVANQTVEQLQKMLREMPGSITFKIVP [R73P], which abundance fitness is on record?
A: -0.357 ± 0.041

Q: With VRLVQFQKNTDEPMGITLKMNELNHCIVARIMHGGMIHRQGTLHVGDEIREINGISVANQTVEQLQKMLREMQGSITFKIVP [R73Q] as the variant, how does the abundance fitness read?
A: -0.006 ± 0.031

Q: Which abundance fitness does the source give for VRLVQFQKNTDEPMGITLKMNELNHCIVARIMHGGMIHRQGTLHVGDEIREINGISVANQTVEQLQKMLREMSGSITFKIVP [R73S] here?
A: 0.025 ± 0.025

Q: For VRLVQFQKNTDEPMGITLKMNELNHCIVARIMHGGMIHRQGTLHVGDEIREINGISVANQTVEQLQKMLREMTGSITFKIVP [R73T], which abundance fitness is on record?
A: -0.003 ± 0.031

Q: Which abundance fitness does the source give for VRLVQFQKNTDEPMGITLKMNELNHCIVARIMHGGMIHRQGTLHVGDEIREINGISVANQTVEQLQKMLREMVGSITFKIVP [R73V] here?
A: -0.038 ± 0.024

Q: Which abundance fitness does the source give for VRLVQFQKNTDEPMGITLKMNELNHCIVARIMHGGMIHRQGTLHVGDEIREINGISVANQTVEQLQKMLREMWGSITFKIVP [R73W] here?
A: -0.117 ± 0.027

Q: For VRLVQFQKNTDEPMGITLKMNELNHCIVARIMHGGMIHRQGTLHVGDEIREINGISVANQTVEQLQKMLREMYGSITFKIVP [R73Y], which abundance fitness is on record?
A: -0.157 ± 0.11

Q: Which abundance fitness does the source give for VRLVQFQKNTDEPMGITLKMNELNHCIVARIMHGGMIHRQGTLHVGDEIREINGISVANQTVEQLQKMLREMRCSITFKIVP [G74C] here?
A: -0.5 ± 0.066

Q: With VRLVQFQKNTDEPMGITLKMNELNHCIVARIMHGGMIHRQGTLHVGDEIREINGISVANQTVEQLQKMLREMRDSITFKIVP [G74D] as the variant, how does the abundance fitness read?
A: -0.131 ± 0.043

Q: Which abundance fitness does the source give for VRLVQFQKNTDEPMGITLKMNELNHCIVARIMHGGMIHRQGTLHVGDEIREINGISVANQTVEQLQKMLREMRFSITFKIVP [G74F] here?
A: -0.51 ± 0.078

Q: For VRLVQFQKNTDEPMGITLKMNELNHCIVARIMHGGMIHRQGTLHVGDEIREINGISVANQTVEQLQKMLREMRHSITFKIVP [G74H], which abundance fitness is on record?
A: -0.355 ± 0.061

Q: With VRLVQFQKNTDEPMGITLKMNELNHCIVARIMHGGMIHRQGTLHVGDEIREINGISVANQTVEQLQKMLREMRISITFKIVP [G74I] as the variant, how does the abundance fitness read?
A: -1.13 ± 0.2

Q: For VRLVQFQKNTDEPMGITLKMNELNHCIVARIMHGGMIHRQGTLHVGDEIREINGISVANQTVEQLQKMLREMRKSITFKIVP [G74K], which abundance fitness is on record?
A: -0.399 ± 0.042

Q: Which abundance fitness does the source give for VRLVQFQKNTDEPMGITLKMNELNHCIVARIMHGGMIHRQGTLHVGDEIREINGISVANQTVEQLQKMLREMRLSITFKIVP [G74L] here?
A: -0.842 ± 0.044

Q: With VRLVQFQKNTDEPMGITLKMNELNHCIVARIMHGGMIHRQGTLHVGDEIREINGISVANQTVEQLQKMLREMRMSITFKIVP [G74M] as the variant, how does the abundance fitness read?
A: -0.806 ± 0.077

Q: For VRLVQFQKNTDEPMGITLKMNELNHCIVARIMHGGMIHRQGTLHVGDEIREINGISVANQTVEQLQKMLREMRNSITFKIVP [G74N], which abundance fitness is on record?
A: -0.243 ± 0.056

Q: Which abundance fitness does the source give for VRLVQFQKNTDEPMGITLKMNELNHCIVARIMHGGMIHRQGTLHVGDEIREINGISVANQTVEQLQKMLREMRPSITFKIVP [G74P] here?
A: -0.524 ± 0.046

Q: Which abundance fitness does the source give for VRLVQFQKNTDEPMGITLKMNELNHCIVARIMHGGMIHRQGTLHVGDEIREINGISVANQTVEQLQKMLREMRRSITFKIVP [G74R] here?
A: -0.467 ± 0.027

Q: For VRLVQFQKNTDEPMGITLKMNELNHCIVARIMHGGMIHRQGTLHVGDEIREINGISVANQTVEQLQKMLREMRSSITFKIVP [G74S], which abundance fitness is on record?
A: -0.381 ± 0.033

Q: For VRLVQFQKNTDEPMGITLKMNELNHCIVARIMHGGMIHRQGTLHVGDEIREINGISVANQTVEQLQKMLREMRTSITFKIVP [G74T], which abundance fitness is on record?
A: -0.4 ± 0.04
